In patent US20240245805A1 (Orna Therapeutics, Inc., priority 2020, published 2024):

Each molecule was assayed on HEK293 cells. Details: circular RNA encoding Gluc with the listed IRES (UTR truncated to 675 nt) transfected into HEK293 cells; supernatant after 24 hours.
Format: cell-based, human

Row | Molecule | Expression (luminescence from secreted Gluc protein)
1 | HAV FH1 (nucleic acid, lipid formulation; Hepatovirus A) CTTGATACCTCACCGCCGTTTGCCTAGGCTATAGGCTAAATTTCCCTTTCCCTGTCCTTTCCCTATTTCCTTTTGTTTTGTTTGTAAATATTAATTCCTGCAGGTTCAGGGTTCTTTAATCTGTTTCTCTATAAGAACACTCAATTTTCACGCTTTCTGTCTCCTTTCTTCCAGGGCTCTCCCCTTGCCCTAGGCTCTGGCCGTTGCGCCCGGCGGGGTCAACTCCATGATTAGCATGGAGCTGTAGGAGTCTAAATTGGGGACGCAGATGTTTGGGACGTCGCCTTGCAGTGTTAACTTGGCTTTCATGAACCTCTTTGATCTTCCACAAGGGGTAGGCTACGGGTGAAACCTCTTAGGCTAATACTTCTATGAAGAGATGCCTTGGATAGGGTAACAGCGGCGGATATTGGTGAGTTGTTAAGACAAAAACCATTCAACGCCGAAGGACTGGCTCTCATCCAGTGGATGCATTGAGGGAATTGATTGTCAGGGCTGTCTCTAGGTTTAATCTCAGACCTCTCTGTGCTTAGGGCAAACACTATTTGGCCTTAAATGGGATCCTGTGAGAGGGGGTCCCTCCATTGACAGCTGGACTGTTCTTTGGGGCCTTATGTGGTGTTTGCCTCTGAGGTACTCAGGGGCATTTAGGTTTTTCCTCATTCTTAAACAATA | 1.24E+05
2 | Limnipivirus C (nucleic acid, lipid formulation; Limnipivirus C) DNA: GTTTCTGAGCACTGGTAAGAGCTTAGACAAACGTTTTTAAAATTTATTTTCTCTGCAACTTTTGTTTGTGTTTATTTTTATTTGTTAATTTTGCGCCTAAGCATTTGTTGCGAAGTATTTGATTCATTAGTAATATTACTTATTGTTTATTTAGATGGTATTCAAAGTGGTGGGAGTATCGAACCCAAGCGTCGTATGCTATCTCCTTGAACAATTTTTAATCATTGCGAAGTGATCATTGAAAAGGATAGGTGTTTAAGAACTCAAAGAGTGTTAATAATGTTGGGTGACAGGTGTCCCCATAGAATTTATTAACATGATTTGGACTGGTTATCTAGTAAGAAGAACCATCGAACGCACGAGCGAGCATTGCTTGCGGGGCAGTTACCCTGCGTCGATGTAAGTGTGTACCGGGGGGTGCACATGTTGATTCTTTATGGCCTGATAGGGTGCGTCATTCGCGCCTAGATAATTAGTATAATGCGAATGGAATAAATTTAC | 1.35E+05
3 | Hepatovirus C (nucleic acid, Hepatovirus C) DNA: TTCAAAAGCCCCAGCGGGGTTTCATTACCCCGCTGTGGCTTTTGGACTTCCCTAGGATGGGGAAGTAAATTACCATCCTCGCGTTTGCCGTGCGTTAACGGCTACTTTTCTTCTAGCTGTAGAAGTAAAATTCAGCATGTTTTATGTTTGTTTGTCTTGTTTGTTATATACATTTTTACACTCCTACAAATGCACATGAAGAACAGTTTGTAGAGATTAACAAACGCTTAGCTGAACCTAGGTGGTGAATCTAGTAGTAAGATAAGTAGAGGAAGCTATACCTTAAGTTGGTTGGGCCCTCGTGTTTGCTCTATAAACAAAACCAAGTGAGTAGAGTGGATGAACAGTACTAAATCCCTGAGTACAGGGAACCTCACAGGTGTGATACACTTATGTCTATGTGACCTGGTTGGAGGTTGGGCGTGCCCTATGATACTGGAGTGGGAGATCTTTTGGGGAACCCACGTTTTCACACTGCCTGATAGGGTCTTGCCGAGAGACTCACTTGTTTCGGCTGTACTTGTAAC | 5.08E+05
4 | Fipivirus C (nucleic acid, lipid formulation; Fipivirus C) CGCGGTTAAACCCGCGCAACCTTCTTTCAGCCGCGTCTGAGTAGCGCGGTTAGTCCTGATACACAGTTTCCTGTTGGGTACTGTGTCTTCGGGTGAATGCTCTTGTGTGAATGTTTTAGGCTGTTTAAGGGAAGCGTTTCCCCGTGCGCTGTGAGGGTTTCTCACGCTCTTTCGGGGTGCAGTCTCTTCTGTTGTTCATTAAGATGTATGGATGCACTGTTGTGAAGGATTTGTGAACTGGGGATCGACACCCCGTGAGGGGTGCCCCAGTGTCCATAGGAGTTTGCTGGAGAGGTGTGTTGCTGTAGTGACTATCCGTGACCTGGCATTCTAAGGTGTTGACCCCAACCTGTGAGGGTCTGGATCGCAGTGTTGAAGTGCTTTGGAGGGTTCAATGGGGTTTCTGTAGTGGATATTATGTGCTTGACGACTACTGGTACGAGTGTATTGGGGGTCTACATGTGTGA | 1.09E+05
5 | Fipivirus E (nucleic acid, lipid formulation; Fipivirus E) CTCTTCCGATCTTGGGGGTTCGCCCCCATGTCTCATTTCAACTAGCCGTGTGTCTAGTTAACGCACCGCCTCACCCTGGTCGTTATCGGGTCGGTTCTTGCGACCGTTAGATCGTGAGCGTTTCTGAGGATCAGTTCGTATAAGTTCTCCGGTGTGGCGACCGTAAAATCGTCACGTCCCATGCAATAGATGACGTTAAACTCGTTTGCCAGTTACATAAAGGAATGTTGTTACTTTTAAATTGTCTGTTACATTTAACATCTTGCCAGTATGATGCTACTGTACACTACGGGTGTAGGAACCTTGTAGTGTGACGTATCACTCATATGTGGATGGGTGCTCCAGACCTTTATGGAAGCTCTCAGTTAGTAGTGATCCTTGACTTCATTGAGCCCTGGTAACAGTGGAAGTCAAGATGTATATGTTGCTCAACACACTTCGGTGCTACGAAGCTGTTTGTGGAAGTACTGGCGAGGTTCATTCTGAATCATATGTTTGTCACATAGTCAGGGAGTGCCGTCGCTTACGACGGACCCTTTTTCTTTATAATTACAAATCTGTGTCTCAAGTGTTGTTGGCTGGTTTTCTTCTTCTGTTTTCATTGTTCATATATATACGTCAGAGTGAAAGACTCGGTATATACAAAACTGATCCAGA | 1.10E+05
6 | Hepatovirus I (nucleic acid, Hepatovirus I) DNA: GGCTGCCTGTGTCTCAGGGGTAAGTACTGGGGCCGCGTTGACCGTGCGGTACGGTTATGCTTTTAGATTAGGATGTCCGTCTGTCCGGCACTCTCTTTTGCTTAAAATGGCCTTAAATCCATGGGAGGCGTAACCATGGGCCCTTTGTTACCTAGACATGATTGCATTGGGGGCCGTCCTTGGGGCTTAGGCCCCAGCCATTTCTCTTGACTCGTCTAAGAGTTTACTTCATCCTTTTCTTTACTTTATTTTCCAGGCTCTCAGCATGCCGACGGCTCTGACCACTGCGCCCGGTGGGGTTAACTGCATGATTAGCATGCAGCTGTAGGAGTTAAAAGTGCTGACAGGCCAATTCTGACGTAAGTCCACTCTATATTAACTTGATCAAGTAAGGTTGATTGATCTTTGTGAGAGGGTAGGCTACGGGTGAAACCCTCTAGGTTAATACTCATATTGAGAGATACCTCCAGAAGGTGAAGGTTGGCGGATATTGGTGAGTTCTTTTAGGACAAAAACCTTTCAACGCCTGTGGGCCCACCTCACTGGCACAATGCTTTCATCCCCAATTGTGATGGGTAGTTTGGACTGAAATCAGGAGTAACCTGCCCTACGAGTTTAGGGGTAGTTCAGGGGTATTTAGGCTTCCACATTTGATAGAGTTTATGAGAGTGAGCC | 8.79E+05
7 | Orivirus (nucleic acid, listed as Orivirus sp., lipid formulation) DNA: GGTCCCAGGCCAATATTCTTCGTAAGGCTTGGTTCCAATTTTCCACCACTCGTGTTTGGGTTCTGGCCTATGGTACCCAGAGGGGCGGTTTGGGGGAATTAACTCCCCCTCCCCTGTGGTCCTATACCACCCCACACCTCTGTGGGCTTTCTTTACTATCTTCTTGTTTTCCGACTTTTAAACACTAGGCAGGCGCGCCTAGTCATACACCGCCCGGCTGGTCTTTCCAGCTCTTGTGGGCGGTGCGCGCTGGTCCATCGTGCCCAGCGACATAGCACCTTGTGGACACCTCCGAACGCCCTCCCCTGTATGGGGTGGTGCCCAGGGGTTTCAGTGTGGTGACACACTCCCTGGGGCCCGAAAGGCTAGTGTGCAACAGGTGAGGTACAGCCAGCTGCCCCCGTGGCTGGAGGGACCAAGCTTGTGAAGCACACCTCACCTTCTTGGGGGTGGGCTAGTAAGTGGTGAAAGCATAGTGTCCGTGTCGCTGGCCAACACTTTGGGTCAAGTCCAGCCACTCAGTGAGTAGATGCCCAGGAGGTACCCCTAGTGGATCTGACTTGGGGCCTGTTACTTAATGCAGGTTAAAAACTATGAAAGCTGAGTAGTGTAGCCCGGCTGGTGGCTTCTCTTCCTTATTCATTCTATTTTATGGTGACAAACGCAACTGAAGCC | 6.09E+05
8 | HAV HM175 (nucleic acid, lipid formulation; Hepatovirus A) CGCCGTTTGCCTAGGCTATAGGCTAAATTTTCCCTTTCCCTTTTCCCTTTCCTATTCCCTTTGTTTTGCTTGTAAATATTGATTTGTAAATATTGATTCCTGCAGGTTCAGGGTTCTTAAATCTGTTTCTCTATAAGAACACTCATTTCACGCTTTCTGTCTTCTTTCTTCCAGGGCTCTCCCCTTGCCCTAGGCTCTGGCCGTTGCGCCCGGCGGGGTCAACTCCATGATTAGCATGGAGCTGTAGGAGTCTAAATTGGGGACACAGATGTTTGGAACGTCACCTTGCAGTGTTAACTTGGCTTTCATGAATCTCTTTGATCTTCCACAAGGGGTAGGCTACGGGTGAAACCTCTTAGGCTAATACTTCTATGAAGAGATGCCTTGGATAGGGTAACAGCGGCGGATATTGGTGAGTTGTTAAGACAAAAACCATTCAACGCCGGAGGACTGACTCTCATCCAGTGGATGCATTGAGTGGATTGACTGTCGGGGCTGTCTTTAGGCTTAATTCCAGACCTCTCTGTGCTTGGGGCAAACATCATTTGGCCTTAAATGGGATTCTGTGAGAGGGGATCCCTCCATTGCCAGCTGGACTGTTCTTTGGGGCCTTATGTGGTGTTTGCCGCTGAGGTACTCAGGGGCATTTAGGTTTTTCCTCATTCTTAAATAATA | 4.96E+05
9 | Fipivirus A (nucleic acid, lipid formulation; Fipivirus A) TGCGGGTAAACTCCCGCATGTGTGAATGAGGCGATGTCCCAGGAACTAACTGCCGATCCTGGTTTTAACTACGATCCGTATTTGTTACTAATGCGATATCCCCCCATTGTTTGCCTCCATGTTGTTTTCAACGCTTTTGGCCTTGAGTGTTATCAAGTGTTTTAGCGACATAGTGGGAAGCTACGGCTGCGTCCCCATTTTTGAGTGGCGACCCAGTTTTAGTGGCCACTCTGTCCCTGAACTGCGCTATAATGTGAATTTATGTTCACAAAAACGGACTGATGTAACTGTTAATGACTAAGGAATAGTACCTCACTGAAGTATCAAGACCCCGTTCGAGCGGTGTACATATATGGATGGAAACCTTGTCTGAGTCATCTCGAATACTAATCAATGAGGGATGTCGAGTAAGCATATCATGAACCACATAGAATAGTGGGGTTTCGGGGTTAGAGGCTCTCTGCAGCAATGTATCTCTAACACCATGGCCGAAATGAGAGATAGAGACCACGATGTTTGTGTGTAAGTAATGATGTGTGGAAAGAAAATTCTGAATGTTGGTATGATATCAGTCTAAGGGGAGTGGCTCACCTAAGAGCTACCCAAACATTTCACAGCAGACAACATAACGTACTGAGAGTAGTTGGAAGGTTCCAGAAATCAGT | 2.69E+05
